Paper PMC7911073, “Overproduction of Human Zip (SLC39) Zinc Transporters in Saccharomyces cerevisiae for Biophysical Characterization” (Cells, 2021)

Legend:
[1] = target: the molecule itself; assay: SDS-PAGE with Coomassie staining of SEC-pure samples (monomer and dimer bands); fractions of the main SEC peak in DDM + CHS
[2] = target: the molecule itself; assay: SDS-PAGE with Coomassie staining and immunoblot by the tag (monomer and dimer bands); affinity-pure fractions (IMAC or StrepII-tag affinity) of N-terminal hZIP1 fusions solubilized in 2% DDM + 0.2% CHS; blot with 6xHis mAb-HRP or Strep-Tactin HRP
[3] = target: the molecule itself; assay: SDS-PAGE with Coomassie staining and in-gel GFP fluorescence (monomer and dimer bands); IMAC eluate of hZIP1-TEV-GFP-His solubilized in 2% DDM + 0.68% CHS

B1: StrepII-TEV-hZIP1 (natural protein, human, UniProt Q9NY26 1-324, looked up)
chain: MGPWGEPELLVWRPEAVASEPPVPVGLEVKLGALVLLLVLTLLCSLVPICVLRRPGANHEGSASRQKALSLVSCFAGGVFLATCLLDLLPDYLAAIDEALAALHVTLQFPLQEFILAMGFFLVLVMEQITLAYKEQSGPSPLEETRALLGTVNGGPQHWHDGPGVPQASGAPATPSALRACVLVFSLALHSVFEGLAVGLQRDRARAMELCLALLLHKGILAVSLSLRLLQSHLRAQVVAGCGILFSCMTPLGIGLGAALAESAGPLHQLAQSVLEGMAAGTFLYITFLEILPQELASSEQRILKVILLLAGFALLTGLLFIQI
notes: human ZIP1 (hZIP1), full-length, codon-optimized cDNA; UniProt Q9NY26; A TEV protease site stands between the StrepII tag and hZIP1; not cleaved here; Predicted MW 36.5 kDa; also called N-terminal hZIP1 fusion; not shown: StrepII, N-terminal, kept
binding result [1]: binds

B2: His-TEV-hZIP1 (natural protein, human, UniProt Q9NY26 1-324, looked up)
chain: MGPWGEPELLVWRPEAVASEPPVPVGLEVKLGALVLLLVLTLLCSLVPICVLRRPGANHEGSASRQKALSLVSCFAGGVFLATCLLDLLPDYLAAIDEALAALHVTLQFPLQEFILAMGFFLVLVMEQITLAYKEQSGPSPLEETRALLGTVNGGPQHWHDGPGVPQASGAPATPSALRACVLVFSLALHSVFEGLAVGLQRDRARAMELCLALLLHKGILAVSLSLRLLQSHLRAQVVAGCGILFSCMTPLGIGLGAALAESAGPLHQLAQSVLEGMAAGTFLYITFLEILPQELASSEQRILKVILLLAGFALLTGLLFIQI
notes: human ZIP1 (hZIP1), full-length, codon-optimized cDNA; UniProt Q9NY26; A TEV protease site stands between the His8 tag and hZIP1; also called N-terminal hZIP1 fusion; source: S. cerevisiae PAP1500, purified from crude membranes solubilized in 2% DDM + 0.2% CHS (IMAC); not shown: His8, N-terminal, kept
binding result [2]: binds

B3: hZIP1-TEV-GFP-His (natural protein, human, UniProt Q9NY26 1-324, looked up)
chain: MGPWGEPELLVWRPEAVASEPPVPVGLEVKLGALVLLLVLTLLCSLVPICVLRRPGANHEGSASRQKALSLVSCFAGGVFLATCLLDLLPDYLAAIDEALAALHVTLQFPLQEFILAMGFFLVLVMEQITLAYKEQSGPSPLEETRALLGTVNGGPQHWHDGPGVPQASGAPATPSALRACVLVFSLALHSVFEGLAVGLQRDRARAMELCLALLLHKGILAVSLSLRLLQSHLRAQVVAGCGILFSCMTPLGIGLGAALAESAGPLHQLAQSVLEGMAAGTFLYITFLEILPQELASSEQRILKVILLLAGFALLTGLLFIQI
notes: human ZIP1 (hZIP1), full-length, codon-optimized cDNA synthesized by GenScript; UniProt Q9NY26; A TEV protease site (ENLYFQ↓SQF) stands between hZIP1 and GFP-His8; the fusion could not be cleaved by TEV protease; Predicted MW 63.3 kDa; also called hZIP1 C-terminally fused to TEV-GFP-His-tag; SLC39 family member; source: S. cerevisiae PAP1500, in whole-cell lysate; also purified from crude …
binding result [3]: binds
